Assay [1] concerns the target T1, E. coli Exonuclease I (Escherichia coli, UniProt P04995 1-475).
T1 construct: also called ExoI; Exol
T1 sequence: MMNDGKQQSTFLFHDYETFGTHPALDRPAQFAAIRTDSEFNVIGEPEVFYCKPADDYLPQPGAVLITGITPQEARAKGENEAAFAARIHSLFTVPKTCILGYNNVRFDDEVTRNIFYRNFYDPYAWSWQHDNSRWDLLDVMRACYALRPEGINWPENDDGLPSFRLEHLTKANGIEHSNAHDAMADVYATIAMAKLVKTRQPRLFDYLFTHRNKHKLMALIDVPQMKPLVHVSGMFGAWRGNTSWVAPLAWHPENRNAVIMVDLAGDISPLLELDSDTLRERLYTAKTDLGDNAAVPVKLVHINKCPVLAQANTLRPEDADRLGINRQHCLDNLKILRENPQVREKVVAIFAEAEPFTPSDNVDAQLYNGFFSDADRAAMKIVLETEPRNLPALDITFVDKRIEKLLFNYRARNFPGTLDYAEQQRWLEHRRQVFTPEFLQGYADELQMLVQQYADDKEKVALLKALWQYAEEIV
Description: fluorescence anisotropy equilibrium binding (Kd,app), ExoI titrated into fluorescein-labeled peptide. A general note: Polarisation of emitted light reports the rotation of a fluorescent probe.

Assay [2] addresses T2, ExoI Gln448Ala variant (Escherichia coli, UniProt P04995 1-475).
T2 construct: helical domain residue; also called Q448A; Gln448 variant
T2 sequence: T1 sequence with Q448A
The assay can be described thus: fluorescence anisotropy equilibrium binding (Kd,app), ExoI variant titrated into fluorescein-labeled peptide.

The target in assay [3] is T3, ExoI Arg148Ala variant (Escherichia coli, UniProt P04995 1-475).
T3 construct: also called R148A; Arg148 variant
T3 sequence: T1 sequence with R148A
The assay is described as above.

Assay [4] deals with T4, ExoI Leu331Ala variant (Escherichia coli, UniProt P04995 1-475).
T4 construct: also called L331A
T4 sequence: T1 sequence with L331A
Described as above.

Assay [5] deals with T5, ExoI Lys227Ala variant (Escherichia coli, UniProt P04995 1-475).
T5 construct: basic ridge residue; also called K227A; Lys227 variant
T5 sequence: T1 sequence with K227A
The description is as above.

Where a chain is given by its changes, count along the chain named. Where no end group is shown, it is not given here. fluorescein = fluorescein moiety attached to the N-terminus of the peptide (N-terminal fluorescein label)

Turning to fluorescein-WMDFDDDIPF (also called F-SSB-Ct; F-WT) [fluorescein-labeled SSB C-terminal peptide (fluorescein-WMDFDDDIPF)], the Kd in assay [1] was 136 nM; in assay [2], 181 nM; in assay [3], above 1000 nM; in assay [4] it was 193 nM; in assay [5], around 1000 nM.

The record behind these values is US8415393B2, “Anti-bacterial drug targeting of genome maintenance interfaces” (Wisconsin Alumni Research Foundation, priority 2007, dated 2013).
